From article PMC11324105 come the findings set out here.

The target of this test is Nb9-R59A (alpaca). Put plainly: BLI.
Chain of Nb9-R59A (alpaca) (heavy, as listed by the source): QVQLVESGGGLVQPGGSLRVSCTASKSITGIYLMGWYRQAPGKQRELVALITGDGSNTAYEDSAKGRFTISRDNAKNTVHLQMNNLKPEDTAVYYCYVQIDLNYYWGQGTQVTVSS

With “MERS-CoV RBD (from UniProt K9N5Q8) (domain or fragment)”, the dissociation constant (Kd) amounted to 4.58 µM, the off-rate (koff) came to 0.0624 s⁻¹ and the on-rate (kon) was 13600 M⁻¹ s⁻¹.
